Measurements reported in patent US10724009B2, “Cannabichromenic acid synthase from Cannabis sativa” (priority 2014, dated 2020).
Where “and” joins values, the source holds several entries; their conditions need not be identical. Equal entries are not always repeated.

How the values were obtained:
recombinant CBCAS = molecular target: T1, recombinant CBCAS (Cannabis sativa, UniProt Q33DQ2, H543R/W244C); test: CBCAS assay: conversion of CBGA to CBCA, products analysed by HPLC/LCMS; assay type: biochemical; conditions: for inhibition of recombinant CBCAS by additive: FIG. 4, effect of additive on CBCA production, high concentrations; for formation of CBCA from CBGA: recombinant enzyme expressed in Pichia pastoris, CBGA incubated 14 h
T1 construct: alpha-factor signal peptide (vector encoded) (N); made in house; host or cells: Pichia pastoris strain X33
Experimental: FIG. 4 depicts optimal conditions for CBCAS activity. […] Values are expressed as a fraction of CBCA produced (CBCA A265 nm/(CBGA A265 nm+CBCA A265 nm)*100).
Reactions using media were performed by incubating 10 μmols CBGA in 500 μL of clarified culture media for 14 h. Reactions using hydroxyl-apatite fractions were performed with 100 μL of the fraction incubated with 10 nmols of CBGA for 14 h. Completed reactions were acidified with one drop of 4 N HCl and extracted twice with 400 μL of acetonitrile. After centrifugation, the organic phases were pooled and evaporated to dryness. Products were resuspended in 20 μL of 50% methanol, of which 10 μL was analyzed by LCMS. Products were separated with a Waters Alliance HPLC using a binary solvent system (solvent A: 10% acetonitrile, 0.05% formic acid; solvent B: 99.95% acetonitrile, 0.05% formic acid) and an Ascnetis C18 5 cm×2.1 mm 2.7 μm column (Sigma). Initial conditions: 55% A at 0.25 mL/min. Ramp to 5% A from 0-8 min, hold at 5% A for 2.5 min, return to initial conditions over 2 min and equilibrate at initial conditions for 7 min. Ultraviolet spectra were obtained using photodiode array detection at 200-350 nm.

mouse tetrad model = conditions: at high concentrations (DeLong et al., 2011); cited from earlier work

Triton X-100 [reference compound]
inhibition of recombinant CBCAS by additive (recombinant CBCAS): inhibited by high concentrations

C[S+](C)[O-] [DMSO, reference compound]
inhibition of recombinant CBCAS by additive (recombinant CBCAS): inhibited by high concentrations

CCCCCc1cc(O)c2c(c1)OC(C)(CCC=C(C)C)C=C2 (stereo not drawn) [CBC, cannabichromene]
THC-like activity in a mouse tetrad model (mouse tetrad model): shows THC-like activity

B1: recombinant CBCAS: Cannabis sativa cannabichromenic acid synthase (SEQ ID NO:2) expressed in Pichia pastoris with alpha-factor signal peptide (protein)
chain: MNCSTFSFWFVCKIIFFFLSFNIQISIANPQENFLKCFSEYIPNNPANPKFIYTQHDQLYMSVLNSTIQNLRFTSDTTPKPLVIVTPSNVSHIQASILCSKKVGLQIRTRSGGHDAEGLSYISQVPFAIVDLRNMHTVKVDIHSQTAWVEAGATLGEVYYWINEMNENFSFPGGYCPTVGVGGHFSGGGYGALMRNYGLAADNIIDAHLVNVDGKVLDRKSMGEDLFWAIRGGGGENFGIIAACKIKLVVVPSKATIFSVKKNMEIHGLVKLFNKWQNIAYKYDKDLMLTTHFRTRNITDNHGKNKTTVHGYFSSIFLGGVDSLVDLMNKSFPELGIKKTDCKELSWIDTTIFYSGVVNYNTANFKKEILLDRSAGKKTAFSIKLDYVKKLIPETAMVKILEKLYEEEVGVGMYVLYPYGGIMDEISESAIPFPHRAGIMYELWYTATWEKQEDNEKHINWVRSVYNFTTPYVSQNPRLAYLNYRDLDLGKTNPESPNNYTQARIWGEKYFGKNFNRLVKVKTKADPNNFFRNEQSIPPLPPRHH
modifications: alpha-factor signal peptide; Cannabis Sativa
temperature of maximal activity (recombinant CBCAS; 35, 40, 45 and 50° C. tested): 40 °C | pH optimum (recombinant CBCAS; FIG. 4, effect of buffer and buffer pH on CBCA production): 5.5 | temperature optimum (recombinant CBCAS; FIG. 4, effect of incubation temperature on CBCA production): 40 degrees | pH of maximal activity (recombinant CBCAS; pH 3.5 to 7 tested): 5 and 5.5 | formation of CBCA from CBGA (recombinant CBCAS): catalyzed the formation of CBCA from CBGA | formation of CBCA from CBGA (recombinant CBCAS; listed as CBCAS): produces CBCA
